Consider three variants from IntAct's records for PubMed 21441914.

B1: Double-strand break repair protein rad32 (Schizosaccharomyces pombe (strain ATCC 38366 / 972)), Q09683 (parent)
chain: MPNDPSDMNNELHNENTIRILISSDPHVGYGEKDPVRGNDSFVSFNEILEIARERDVDMILLGGDIFHDNKPSRKALYQALRSLRLNCLGDKPCELELLSDTSLTTGDTAVCNINYLDPNINVAIPVFSIHGNHDDPSGDGRYSALDILQVTGLVNYFGRVPENDNIVVSPILLQKGFTKLALYGISNVRDERLYHSFRENKVKFLRPDLYRDEWFNLLTVHQNHSAHTPTSYLPESFIQDFYDFVLWGHEHECLIDGSYNPTQKFTVVQPGSTIATSLSPGETAPKHCGILNITGKDFHLEKIRLRTVRPFIMKDIILSEVSSIPPMVENKKEVLTYLISKVEEAITEANAQWYEAQGTVPVVENEKPPLPLIRLRVDYTGGYQTENPQRFSNRFVGRVANATDVVQFYLKKKYTRSKRNDGLYTSAVEDIKINSLRVESLVNEYLKTNRLECLPEDSLGEAVVNFVEKDDRDAIKECVETQLNKQINLLVKKRVTEENLEQEISSIINDLPKISTTKRKDYEELPEEVSETSINIAEHTPVLKHTSSLLDHHSPLATSSSEHEMEATPSPALLKKTNKRRELPSSLTKKNTRTPQRSKEVKKVPARKLSQSTKKSDKNTQSTLLFYDPSSTTEAQYLDNEDDEILDD
partner: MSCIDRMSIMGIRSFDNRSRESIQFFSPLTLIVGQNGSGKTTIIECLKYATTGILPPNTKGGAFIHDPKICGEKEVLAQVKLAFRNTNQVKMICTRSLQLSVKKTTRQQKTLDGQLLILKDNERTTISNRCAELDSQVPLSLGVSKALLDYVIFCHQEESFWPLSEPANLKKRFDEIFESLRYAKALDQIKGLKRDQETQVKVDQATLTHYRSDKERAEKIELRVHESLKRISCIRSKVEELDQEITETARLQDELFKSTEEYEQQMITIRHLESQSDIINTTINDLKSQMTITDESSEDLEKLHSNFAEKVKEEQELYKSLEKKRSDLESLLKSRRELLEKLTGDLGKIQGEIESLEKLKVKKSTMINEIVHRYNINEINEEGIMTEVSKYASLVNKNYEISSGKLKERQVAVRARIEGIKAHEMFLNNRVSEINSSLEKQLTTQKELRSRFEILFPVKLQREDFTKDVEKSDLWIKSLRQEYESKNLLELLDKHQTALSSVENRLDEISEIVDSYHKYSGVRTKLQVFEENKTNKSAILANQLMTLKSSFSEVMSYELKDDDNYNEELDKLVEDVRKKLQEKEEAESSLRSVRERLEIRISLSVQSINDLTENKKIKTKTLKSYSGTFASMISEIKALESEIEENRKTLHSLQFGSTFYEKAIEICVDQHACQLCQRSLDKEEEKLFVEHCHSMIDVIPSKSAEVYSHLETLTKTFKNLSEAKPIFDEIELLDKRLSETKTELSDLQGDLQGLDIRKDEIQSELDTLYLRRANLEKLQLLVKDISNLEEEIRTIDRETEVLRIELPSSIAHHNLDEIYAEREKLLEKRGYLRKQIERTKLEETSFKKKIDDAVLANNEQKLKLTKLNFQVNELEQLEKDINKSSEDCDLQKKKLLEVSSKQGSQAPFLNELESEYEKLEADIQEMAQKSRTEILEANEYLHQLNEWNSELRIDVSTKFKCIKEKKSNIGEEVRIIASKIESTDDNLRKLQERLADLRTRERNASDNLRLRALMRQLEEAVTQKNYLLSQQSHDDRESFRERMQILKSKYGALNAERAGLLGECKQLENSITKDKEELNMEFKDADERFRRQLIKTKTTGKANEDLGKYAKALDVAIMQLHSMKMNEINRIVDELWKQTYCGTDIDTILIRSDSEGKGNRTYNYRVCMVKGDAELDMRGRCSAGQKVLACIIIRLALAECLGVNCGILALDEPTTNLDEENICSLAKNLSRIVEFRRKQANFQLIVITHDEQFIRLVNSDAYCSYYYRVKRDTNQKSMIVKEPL

Variants of B1 are the subject of this assay. The settings on record: with rad50_schpo rad50, Q9UTJ8.
As for C454R;L455R, the “effect of a mutation on the interaction” value is recorded as “disrupting interaction”.

For C479R;V480R, the “effect of a mutation on the interaction” value is “disrupting interaction”.

As to C454R;L455R;C479R;V480R, the “effect of a mutation on the interaction” value was “disrupting interaction”.
